According to patent US20250163117A1 (CURE GENETICS, published 2025):
Positions count from the first letter of the chain named.

T1: human high-affinity IL-2 receptor IL-2Rαβγ on cells (human, UniProt P01589 22-272; P14784 27-551; P31785 23-369)
T1 sequence (looked up) 1: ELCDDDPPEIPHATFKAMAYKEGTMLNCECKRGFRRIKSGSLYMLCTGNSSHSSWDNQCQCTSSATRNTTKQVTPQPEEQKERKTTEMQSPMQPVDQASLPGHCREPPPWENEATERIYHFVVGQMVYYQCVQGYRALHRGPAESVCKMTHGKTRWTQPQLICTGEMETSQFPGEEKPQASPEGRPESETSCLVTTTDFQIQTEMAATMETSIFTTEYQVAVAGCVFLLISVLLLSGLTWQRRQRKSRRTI
T1 sequence (looked up) 2: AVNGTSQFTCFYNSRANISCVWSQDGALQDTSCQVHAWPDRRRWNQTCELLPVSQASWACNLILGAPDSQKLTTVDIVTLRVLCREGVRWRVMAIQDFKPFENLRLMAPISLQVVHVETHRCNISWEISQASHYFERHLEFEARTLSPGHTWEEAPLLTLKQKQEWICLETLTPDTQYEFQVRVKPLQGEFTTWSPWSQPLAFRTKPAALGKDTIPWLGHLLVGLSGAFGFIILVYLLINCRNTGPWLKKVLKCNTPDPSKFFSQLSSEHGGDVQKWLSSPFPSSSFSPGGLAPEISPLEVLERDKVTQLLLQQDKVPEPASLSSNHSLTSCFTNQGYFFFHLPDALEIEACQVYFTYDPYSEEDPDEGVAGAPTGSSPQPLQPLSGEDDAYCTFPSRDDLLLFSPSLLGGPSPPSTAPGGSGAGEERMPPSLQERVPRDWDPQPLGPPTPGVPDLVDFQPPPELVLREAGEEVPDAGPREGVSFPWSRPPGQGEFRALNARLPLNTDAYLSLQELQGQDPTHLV
T1 sequence (looked up) 3: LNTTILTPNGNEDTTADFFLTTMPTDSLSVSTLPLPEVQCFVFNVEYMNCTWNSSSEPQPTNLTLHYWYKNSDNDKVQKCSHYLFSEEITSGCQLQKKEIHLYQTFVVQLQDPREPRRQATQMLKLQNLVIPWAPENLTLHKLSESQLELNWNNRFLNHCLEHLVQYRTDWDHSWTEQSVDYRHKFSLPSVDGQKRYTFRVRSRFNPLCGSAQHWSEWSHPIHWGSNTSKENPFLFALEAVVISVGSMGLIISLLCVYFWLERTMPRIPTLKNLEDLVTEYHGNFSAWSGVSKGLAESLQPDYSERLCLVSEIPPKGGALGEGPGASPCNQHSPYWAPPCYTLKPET

T2: human intermediate-affinity IL-2 receptor IL-2Rβγ on cells (human, UniProt P14784 27-551; P31785 23-369)
T2 sequence (looked up) 1: T1 sequence (looked up) 2
T2 sequence (looked up) 2: T1 sequence (looked up) 3

T3: mouse intermediate-affinity IL-2 receptor IL-2Rβγ on cells (mouse, UniProt P16297 27-539; P34902 23-369)
T3 sequence (looked up) 1: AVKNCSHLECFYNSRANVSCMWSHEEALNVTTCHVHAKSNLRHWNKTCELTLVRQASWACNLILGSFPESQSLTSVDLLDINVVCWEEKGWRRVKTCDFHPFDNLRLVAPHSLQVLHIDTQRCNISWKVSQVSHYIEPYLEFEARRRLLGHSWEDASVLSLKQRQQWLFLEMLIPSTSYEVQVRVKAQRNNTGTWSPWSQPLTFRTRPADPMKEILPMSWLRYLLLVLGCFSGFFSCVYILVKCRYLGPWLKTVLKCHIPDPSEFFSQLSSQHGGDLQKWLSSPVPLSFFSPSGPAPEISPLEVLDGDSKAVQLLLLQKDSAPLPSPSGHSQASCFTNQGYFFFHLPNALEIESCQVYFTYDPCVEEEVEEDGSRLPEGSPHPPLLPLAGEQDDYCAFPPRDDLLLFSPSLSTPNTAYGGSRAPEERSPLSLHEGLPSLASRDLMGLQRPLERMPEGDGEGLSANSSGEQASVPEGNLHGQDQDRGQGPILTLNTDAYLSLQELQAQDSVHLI
T3 sequence (looked up) 2: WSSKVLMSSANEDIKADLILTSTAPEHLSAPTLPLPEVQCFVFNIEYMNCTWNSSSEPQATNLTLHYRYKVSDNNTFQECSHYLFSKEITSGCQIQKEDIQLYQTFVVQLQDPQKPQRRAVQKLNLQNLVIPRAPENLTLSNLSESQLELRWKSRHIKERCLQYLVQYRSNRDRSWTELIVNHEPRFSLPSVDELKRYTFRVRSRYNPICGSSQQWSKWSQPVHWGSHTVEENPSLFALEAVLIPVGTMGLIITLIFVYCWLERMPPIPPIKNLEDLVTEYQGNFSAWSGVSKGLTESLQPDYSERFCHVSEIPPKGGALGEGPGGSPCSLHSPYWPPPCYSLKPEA

T4: mouse high-affinity IL-2 receptor IL-2Rαβγ on cells (mouse, UniProt P01590 22-268; P16297 27-539; P34902 23-369)
T4 sequence (looked up) 1: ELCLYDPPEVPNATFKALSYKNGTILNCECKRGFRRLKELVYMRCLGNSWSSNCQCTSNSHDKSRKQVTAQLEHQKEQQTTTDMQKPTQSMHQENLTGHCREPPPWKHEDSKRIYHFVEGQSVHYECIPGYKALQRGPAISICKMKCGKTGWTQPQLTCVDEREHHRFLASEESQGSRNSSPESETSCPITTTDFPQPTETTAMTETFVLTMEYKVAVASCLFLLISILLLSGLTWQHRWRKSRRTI
T4 sequence (looked up) 2: T3 sequence (looked up) 1
T4 sequence (looked up) 3: T3 sequence (looked up) 2

B1: CP-trIL-2 072 (ligand)
chain: ELKHLQSLEEELKDLEEVLNLAQSKNFHLRPRDLISNINVIVLELKGSETTPTSSSTKKTQLQLEHLLLDLQMILNGINNYKNPTIVEFLNRWITFSQSIISTLT
B2: CP-trIL-2 021 (ligand)
chain: LRPRDLISNINVIVLELKGSETTELKHLQSLEEELKPLEEVLNLAQSKNFHTIVEFLNRWITFSQSIISTLTGGGGSGGGGSPTSSSTKKTQLQLEHLLLDLQMILNGIN
B3: CP-trIL-2 022 (ligand)
chain: B2 chain with P37D
B4: CP-trIL-2 011 (ligand)
chain: PTSSSTKKTQLQLEHLLLDLQMILNGINNYKNPLRPRDLISNINVIVLELKGSETTELKHLQSLEEELKPLEEVLNLAQSKNFHTIVEFLNRWITFSQSIISTLT
B5: CP-trIL-2 042 (ligand)
chain: TIVEFLNRWITFSQSIISTLTGGGGSGGGGSPTSSSTKKTQLQLEHLLLDLQMILNGINNYKNPLRPRDLISNINVIVLELKGSETTELKHLQSLEEELKDLEEVLN
B6: CP-trIL-2 062 (ligand)
chain: TIVEFLNRWITFSQSIISTLTGGGGSGGGGSELKHLQSLEEELKDLEEVLNLAQSKNFHLRPRDLISNINVIVLELKGSETTPTSSSTKKTQLQLEHLLLDLQMILNGIN
B7: CP-trIL-2 082 (ligand)
chain: LRPRDLISNINVIVLELKGSETTPTSSSTKKTQLQLEHLLLDLQMILNGINNYKNPTIVEFLNRWITFSQSIISTLTGGGGSGGGGSELKHLQSLEEELKDLEEVLN
B8: CP-trIL-2 051 (ligand)
chain: PTSSSTKKTQLQLEHLLLDLQMILNGINNYKNPTIVEFLNRWITFSQSIISTLTGGGGSGGGGSELKHLQSLEEELKPLEEVLNLAQSKNFHLRPRDLISNINVIVLELKG
B9: CP-trIL-2 032 (ligand)
chain: ELKHLQSLEEELKDLEEVLNLAQSKNFHTIVEFLNRWITFSQSIISTLTGGGGSGGGGSPTSSSTKKTQLQLEHLLLDLQMILNGINNYKNPLRPRDLISNINVIVLELKG
B10: CP-trIL-2 073 (ligand)
chain: B1 chain with F89K, F96K

Biological target: T1, human high-affinity IL-2 receptor …
Test: cell-based or functional assay

Binder	EC50 of STAT5 activation, human Tregs (flow cytometry) [nM]
B1	22

Biological target: T2, human intermediate-affinity IL-2 …
Test: cell-based or functional assay

Binder	EC50 of STAT5 activation, human CD8 T cells (flow cytometry) [nM]	EC50 of STAT5 activation, human NK cells (flow cytometry) [nM]
B1	45.7	15.6

Biological target: T3, mouse intermediate-affinity IL-2 …
Test: cell-based or functional assay

Binder	EC50 of STAT5 activation, mouse CD8 T cells (flow cytometry) [nM]	EC50 of STAT5 activation, mouse NK cells (flow cytometry) [nM]
B1	110	113

Biological target: T4, mouse high-affinity IL-2 receptor …
Test: cell-based or functional assay

Binder	EC50 of STAT5 activation, mouse Tregs (flow cytometry) [nM]
B1	129

Biological target: T2, human intermediate-affinity IL-2 …
Test: cell-based or functional assay
Remark: another data set of the same source

Binder	EC50 (read off the curve): STAT5 phosphorylation in HH cells [nM]
B2	~30
B3	~20
B4	~6

Biological target: T1, human high-affinity IL-2 receptor …
Test: cell-based or functional assay
Remark: another data set of the same source

Binder	% pSTAT5 in human PBMC at Low IL-2v concentration (2.5 nM per paragraph 254); western blot, pSTAT5/STAT5 normalised to 001 High [%]
B3	9.1
B5	6.2
B6	10.7
B1	6.5
B7	15.6
B8	9.5
B9	10.4

Biological target: T2, human intermediate-affinity IL-2 …
Test: cell-based or functional assay
Remark: another data set of the same source

Binder	% pSTAT5 in human PBMC at High IL-2v concentration (25 nM per paragraph 254); western blot, pSTAT5/STAT5 normalised to 001 High [%]
B3	38.1
B5	9.3
B6	12.1
B1	41.4
B7	45.8
B8	18.2
B9	7.6

Biological target: T2, human intermediate-affinity IL-2 …
Test: cell-based or functional assay
Remark: another data set of the same source

Binder	EC50 (read off the curve): STAT5 phosphorylation in HH cells [nM]
B1	~20
B10	~10

Biological target: T3, mouse intermediate-affinity IL-2 …
Test: cell-based or functional assay
Remark: another data set of the same source

Binder	% pSTAT5 in mouse splenocytes at High IL-2v concentration (25 nM per paragraph 254); western blot, pSTAT5/STAT5 normalised to 001 High [%]
B3	68.5
B5	16.1
B6	20.5
B1	91.3
B7	25.2
B8	21.8
B9	18.9

Biological target: T4, mouse high-affinity IL-2 receptor …
Test: cell-based or functional assay
Remark: another data set of the same source

Binder	% pSTAT5 in mouse splenocytes at Low IL-2v concentration (2.5 nM per paragraph 254); western blot, pSTAT5/STAT5 normalised to 001 High [%]
B3	24.8
B5	13.9
B6	13.8
B1	30.7
B7	16.7
B8	14.6
B9	11.5
